Source: patent publication US20250121063A1, “COMPOSITIONS OF […] RESISTANCE TO P[…] RELATED METHODS OF USE” (priority 2023, published 2025)
“Also recorded” adds a separate entry of the source.

Tests used:
[1] = tested on: LCMV (Lymphocytic choriomeningitis) clone 13; conditions: mouse, in vivo
[2] = tested on: P14 CD8+CD45.2+ T-cells; format: cell-based, mouse
[3] = tested on: B16-OVA melanoma; experiment: Adoptive transfer of shRNA-transduced OT-1 cells into mice bearing B16-OVA melanoma; format: in vivo, mouse; conditions: compared with shFF or HBSS
Excerpt: Referring to FIG. 1, this indicates a normal mouse CD8+ treated with a construct expressing: control short hairpin RNA (shFF) or short hairpin RNA against mouse PTGIR gene. OT-1 is an anti-OVA T cell receptor that recognizes ovalbumin epitope (OVA) antigen variant E1 ([…]) restricted by H2-Kb. Mouse T cells that constitutively express OT-1 (“OT-1 cells”) were transduced with a construct expressing short hairpin RNA against mouse Ptgir gene (“shPTGIR”) or control short hairpin RNA (“shFF”; against firefly luciferase).
At day 0, mice were inoculated with […] B16-OVA melanoma cells (these cells constitutively express the OVA protein and present OVA epitopes on cell surface MHC). On Day 7 mice received (i.v.) 1E6 adoptively transferred gene modified OT-1 cells or Hank's buffered saline solution (HBSS).
At day 0, mice inoculated with B16-OVA melanoma. On Day 7 mice received adoptively transferred, gene modified CD8+ cells on Day 7 or saline (HBSS).
Referring to FIG. 2, this example was performed in the same way as Example 2.

B1: shPTGIR (nucleic acid)
DNA: AGCACGAGAGGAUGAAGUUUACUAGUGAAGCCACAGAUGUAGUAAACUUCAUCCUCUCGUGCC
modifications: expressed or natural sequence
LAG-3 expression [1]: lower LAG-3 expression | absolute abundance of transduced CD45.2 T-cells [1]: higher absolute abundance; also recorded: greater absolute numbers | expansion of adoptively transferred cells (CD45.2+) [1]: highly significant expansion | percentage of Tim-3 [1]: lower percentage of Tim-3 | phenotypic markers of exhaustion [1]: reduced phenotypic markers of exhaustion | IFNγ and TNFα response to antigen stimulation [2]: capable of responding to antigen stimulation | tumor growth ([3]; 1E6 gene modified OT-1 cells i.v. on Day 7 after B16-OVA inoculation): reduced tumor growth | survival ([3]; mice with B16-OVA melanoma, OT-1 cells transferred Day 7): increased survival
